The record followed here is US20220363754A1 (SHANGHAI JUNSHI BIOSCIENCES, published 2022).

Test in all cases: ELISA, 0.5 ug/mL human TIGIT-ECD-mFc coated on the plate, detection with anti-IgG4-HRP, OD 450 nm; unit taken from the axis Log:ng/mL
The target in assay [1] is T1, recombinant protein hTIGIT-ECD-mFC (human; mouse, UniProt Q495A1 24-155).
T1 construct: range 24-155; Expressed in 293E cells; also called human TIGIT-ECD-mFc; not shown: murine IgG2a Fc domain of the vector MX2-mFc
T1 sequence (looked up): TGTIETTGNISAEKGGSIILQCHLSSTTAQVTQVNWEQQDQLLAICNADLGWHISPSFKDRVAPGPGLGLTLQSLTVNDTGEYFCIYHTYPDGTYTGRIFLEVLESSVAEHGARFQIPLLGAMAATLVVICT

The target of assay [2] is T1, recombinant protein hTIGIT-ECD-mFC. The source holds these as a separate data set.
For assay [3] the target is unchanged. This is another data set of the same source.
The target is the same in assay [4]. This is another data set of the same source.

Like-named read-outs stand apart in the source and are kept apart here.

B1: etigilimab (antibody, V domains shown)
VH: QVQLQESGPGLVKPSETLSLTCAVSGYSITSDYAWNWIRQPPGKGLEWIGYISYSGSTSYNPSLRSRVTISRDTSKNQFFLKLSSVTAADTAVYYCARRQVGLGFAYWGQGTLVTVSS
VL: DIQMTQSPSSLSASVGDRVTITCKASQDVSTAVAWYQQKPGKAPKLLIYSASYRYTGVPSRFSGSGSGTDFTFTISSLQPEDIATYYCQQHYSTPWTFGQGTKVEIK
For B1, the EC50 in assay [1] turned out to be 0.0362 µg/mL; in assay [2], 0.0194 µg/mL; in assay [3], 0.0262 µg/mL; in assay [4] it was 0.0275 µg/mL.
